Laboratory results from paper PMC3236198.

Biological target: ΔC SSB (Escherichia coli) (UniProt P0AGE0)
Assay: SEC

ΔC SSB (from UniProt P0AGE0 1-113) (domain or fragment)
stoichiometry N: 4
